Data reported in patent publication US20110059888A1.
*1 amine or outer side, *2 acyl side, *3 side chain or, on linkers, in order; H or OH if unused. [ ]: non-standard residue; d: D form. Ser(Me) = O-methylserine, COC[C@H](N[*:1])C(=O)[*:2]; Arg(Me) = CNC(=N)NCCC[C@H](N)C(=O)O; Ala(cPr) = N[C@@H](CC1CC1)C(=O)O; Hyp = O=C(O)[C@@H]1C[C@@H](O)CN1; 2Pal = N[C@@H](Cc1ccccn1)C(=O)O; 3Pal = N[C@@H](Cc1cccnc1)C(=O)O; 4Pal = N[C@@H](Cc1ccncc1)C(=O)O; Cha = N[C@@H](CC1CCCCC1)C(=O)O

B1: des(1)-Ac-[D-Tyr2,Hyp3,Thr5,Pya(3)6,Arg(Me)9,Trp10]MS10 (peptide)
peptide: Ac-[dY][Hyp]NT[3Pal]GL[Arg(Me)]W-NH2
SMILES: CNC(=N)NCCC[C@H](NC(=O)[C@H](CC(C)C)NC(=O)CNC(=O)[C@H](Cc1cccnc1)NC(=O)[C@@H](NC(=O)[C@H](CC(N)=O)NC(=O)[C@@H]1C[C@@H](O)CN1C(=O)[C@@H](Cc1ccc(O)cc1)NC(C)=O)[C@@H](C)O)C(=O)N[C@@H](Cc1c[nH]c2ccccc12)C(N)=O
B2: des(1)-Ac-[D-Tyr2,Glu3,Thr5,Cha6,Arg(Me)9,Trp10]MS10 (peptide)
peptide: Ac-[dY]ENT[Cha]GL[Arg(Me)]W-NH2
SMILES: CNC(=N)NCCC[C@H](NC(=O)[C@H](CC(C)C)NC(=O)CNC(=O)[C@H](CC1CCCCC1)NC(=O)[C@@H](NC(=O)[C@H](CC(N)=O)NC(=O)[C@H](CCC(=O)O)NC(=O)[C@@H](Cc1ccc(O)cc1)NC(C)=O)[C@@H](C)O)C(=O)N[C@@H](Cc1c[nH]c2ccccc12)C(N)=O
B3: des(1)-Ac-[D-Tyr2,Hyp3,Thr5,Pya(2)6,Arg(Me)9,Trp10]MS10 (peptide)
peptide: Ac-[dY][Hyp]NT[2Pal]GL[Arg(Me)]W-NH2
SMILES: CNC(=N)NCCC[C@H](NC(=O)[C@H](CC(C)C)NC(=O)CNC(=O)[C@H](Cc1ccccn1)NC(=O)[C@@H](NC(=O)[C@H](CC(N)=O)NC(=O)[C@@H]1C[C@@H](O)CN1C(=O)[C@@H](Cc1ccc(O)cc1)NC(C)=O)[C@@H](C)O)C(=O)N[C@@H](Cc1c[nH]c2ccccc12)C(N)=O
B4: des(1)-Ac-[D-Tyr2,Hyp3,Thr5,Pya(4)6,Arg(Me)9,Trp10]MS10 (peptide)
peptide: Ac-[dY][Hyp]NT[4Pal]GL[Arg(Me)]W-NH2
SMILES: CNC(=N)NCCC[C@H](NC(=O)[C@H](CC(C)C)NC(=O)CNC(=O)[C@H](Cc1ccncc1)NC(=O)[C@@H](NC(=O)[C@H](CC(N)=O)NC(=O)[C@@H]1C[C@@H](O)CN1C(=O)[C@@H](Cc1ccc(O)cc1)NC(C)=O)[C@@H](C)O)C(=O)N[C@@H](Cc1c[nH]c2ccccc12)C(N)=O
B5: des(1)-Ac-[D-Tyr2,Hyp3,Thr5,Ser(Me)7,Arg(Me)9,Trp10]MS10 (peptide)
peptide: Ac-[dY][Hyp]NTF[Ser(Me)]L[Arg(Me)]W-NH2
SMILES: CNC(=N)NCCC[C@H](NC(=O)[C@H](CC(C)C)NC(=O)[C@H](COC)NC(=O)[C@H](Cc1ccccc1)NC(=O)[C@@H](NC(=O)[C@H](CC(N)=O)NC(=O)[C@@H]1C[C@@H](O)CN1C(=O)[C@@H](Cc1ccc(O)cc1)NC(C)=O)[C@@H](C)O)C(=O)N[C@@H](Cc1c[nH]c2ccccc12)C(N)=O
B6: des(1)-Ac-[D-Tyr2,Hyp3,Thr5,Val7,Arg(Me)9,Trp10]MS10 (peptide)
peptide: Ac-[dY][Hyp]NTFVL[Arg(Me)]W-NH2
SMILES: CNC(=N)NCCC[C@H](NC(=O)[C@H](CC(C)C)NC(=O)[C@@H](NC(=O)[C@H](Cc1ccccc1)NC(=O)[C@@H](NC(=O)[C@H](CC(N)=O)NC(=O)[C@@H]1C[C@@H](O)CN1C(=O)[C@@H](Cc1ccc(O)cc1)NC(C)=O)[C@@H](C)O)C(C)C)C(=O)N[C@@H](Cc1c[nH]c2ccccc12)C(N)=O
B7: des(1)-Ac-[D-Tyr2,Glu3,Thr5,Arg(Me)9,Trp10]MS10 (peptide)
peptide: Ac-[dY]ENTFGL[Arg(Me)]W-NH2
SMILES: CNC(=N)NCCC[C@H](NC(=O)[C@H](CC(C)C)NC(=O)CNC(=O)[C@H](Cc1ccccc1)NC(=O)[C@@H](NC(=O)[C@H](CC(N)=O)NC(=O)[C@H](CCC(=O)O)NC(=O)[C@@H](Cc1ccc(O)cc1)NC(C)=O)[C@@H](C)O)C(=O)N[C@@H](Cc1c[nH]c2ccccc12)C(N)=O

These molecules were tested against human OT7T175 (metastin receptor) (human) (UniProt Q969F8) (assay: cell-based or functional assay).
UniProt Q969F8, sequence (Q969F8 whole entry L364H): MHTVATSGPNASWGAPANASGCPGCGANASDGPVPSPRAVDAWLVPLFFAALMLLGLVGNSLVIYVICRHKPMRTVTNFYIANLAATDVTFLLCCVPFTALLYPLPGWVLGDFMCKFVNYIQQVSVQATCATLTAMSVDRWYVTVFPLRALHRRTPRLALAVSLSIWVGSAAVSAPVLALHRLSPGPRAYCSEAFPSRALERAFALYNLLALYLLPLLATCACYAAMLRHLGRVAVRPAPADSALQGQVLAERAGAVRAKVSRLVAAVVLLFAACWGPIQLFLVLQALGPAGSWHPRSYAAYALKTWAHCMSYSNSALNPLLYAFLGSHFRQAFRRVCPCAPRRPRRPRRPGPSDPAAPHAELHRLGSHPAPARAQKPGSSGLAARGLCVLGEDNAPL

Molecule	Specific Activity (EC50 of test compound based on EC50 of Metastin (45-54); intracellular calcium, FLIPR) (ratio to EC50 of Metastin (45-54))
des(1)-Ac-[D-Tyr2,Hyp3,Thr5,Cha6,Gly7Ψ((E)CH═CH)Leu8,Trp10]MS10 (peptide)	0.6
des(1)-Ac-[D-Tyr2,Hyp3,Thr5,Phe6Ψ(CH2CH2)AzaGly7,Arg(Me)9,Trp10]MS10 (peptide)	0.6
des(1)-Ac-[D-Tyr2,Hyp3,Thr5,Cha6,Nle8,Arg(Me)9,Trp10]MS10 (peptide)	0.6
des(1)-Ac-[D-Tyr2,Glu3,Thr5,Cha6,Nva8,Arg(Me)9,Trp10]MS10 (peptide)	0.4
des(1)-Ac-[D-Tyr2,Glu3,Thr5,Cha6,Ser(Me)8,Arg(Me)9,Trp10]MS10 (peptide)	0.5
des(1)-Ac-[D-Tyr2,Hyp3,Thr5,Cha6,Ser(Me)8,Arg(Me)9,Trp10]MS10 (peptide)	0.5
des(1)-Ac-[D-Tyr2,Hyp3,Thr5,Gly7Ψ((E)CH═CH)Leu8,Trp10]MS10 (peptide)	0.4
des(1)-Ac-[D-Tyr2,Hyp3,Thr5,Cha6,Nva8,Arg(Me)9,Trp10]MS10 (peptide)	0.5
des(1)-Ac-[D-Tyr2,Hyp3,Alb4,Thr5,Cha6,Gly7Ψ((E)CH═CH)Leu8,Trp10]MS10 (peptide)	0.5
des(1)-Ac-[D-Tyr2,Pro(4F)3,Thr5,Cha6,Ala(cPr)8,Arg(Me)9,Trp10]MS10 (peptide)	0.4
des(1)-Ac-[D-Tyr2,Hyp3,Thr5,Ser(Me)8,Arg(Me)9,Trp10]MS10 (peptide)	0.8
des(1)-Ac-[D-Tyr2,Hyp3,Thr5,Cha6,Arg(Me)9,Trp10]MS10 (peptide)	0.3
des(1)-Ac-[D-Tyr2,Hyp3,Thr5,Gly7Ψ(CH2S)Leu8,Arg(Me)9,Trp10]MS10 (peptide)	1.2
des(1)-Ac-[D-Tyr2,Hyp3,Thr5,Nva8,Arg(Me)9,Trp10]MS10 (peptide)	0.7
des(1)-Ac-[D-Tyr2,Hyp3,Thr5,Cha6,Leu(Me)8,Arg(Me)9,Trp10]MS10 (peptide)	1.4
des(1)-Ac-[D-Tyr2,Hyp3,Thr5,Nal(2)6,Arg(Me)9,Trp10]MS10 (peptide)	1
des(1)-Ac-[D-Tyr2,Hyp3,Thr5,Cha6,Gly7Ψ(CH2S)Leu8,Arg(Me)9,Trp10]MS10 (peptide)	1.7
des(1)-Ac-[D-Tyr2,Hyp3,Thr5,Cha6,Ala7,Arg(Me)9,Trp10]MS10 (peptide)	0.5

Molecule	Specific Activity (EC50 of test compound based on EC50 of Metastin (45-54); intracellular calcium, FLIPR) (ratio to EC50 of Metastin (45-54))
des(1)-Ac-[D-Tyr2,Hyp3,Thr5,Aib7,Arg(Me)9,Trp10]MS10 (peptide)	1.5
Ac-[dY][Hyp]NTFGL[Arg(Me)]W-NH2 (also: Phe5-Gly6 amide replaced by (S)CHOH-CH2) [des(1)-Ac-[D-Tyr2,Hyp3,Thr5,Phe6Ψ((S)CHOH-CH2)Gly7,Arg(Me)9,Trp10]MS10]	1.2
B1	0.9
Ac-[dY][Hyp]NTFGL[Arg(Me)]W-NH2 (also: Phe5-Gly6 amide bond replaced by COCH2) [des(1)-Ac-[D-Tyr2,Hyp3,Thr5,Phe6Ψ(COCH2)Gly7,Arg(Me)9,Trp10]MS10]	1.1
B2	0.6
B3	1.2
Ac-[dY][Hyp]NTFGL[Arg(Me)]W-NH2 (also: Phe5-Gly6 amide replaced by CH2CH2) [des(1)-Ac-[D-Tyr2,Hyp3,Thr5,Phe6Ψ(CH2CH2)Gly7,Arg(Me)9,Trp10]MS10]	1.3
Ac-[dY][Hyp]NTFGL[Arg(Me)]W-NH2 (also: Phe5-Gly6 amide replaced by (S)CHOH-(E)CH=) [des(1)-Ac-[D-Tyr2,Hyp3,Thr5,Phe6Ψ((S)CHOH-(E)CH=)Gly7,Arg(Me)9,Trp10]MS10]	1.7
B4	0.9
B5	1.2
B6	1.7
Ac-[dY][Hyp]NT[Ala(cPr)]GL[Arg(Me)]W-NH2 [des(1)-Ac-[D-Tyr2,Hyp3,Thr5,Ala(cPr)6,Arg(Me)9,Trp10]MS10]	1.9
Ac-[dY][Hyp]NTFGL[Arg(Me)]W-NH2 (also: Phe5-Gly6 amide bond replaced by CH2O) [des(1)-Ac-[D-Tyr2,Hyp3,Thr5,Phe6Ψ(CH2O)Gly7,Arg(Me)9,Trp10]MS10]	0.5
B7	0.5
Ac-[dY][Hyp]NTFGL[Arg(Me)]W-NH2 (also: Phe5-Gly6 amide replaced by (E)CH=CH) [des(1)-Ac-[D-Tyr2,Hyp3,Thr5,Phe6Ψ((E)CH═CH)Gly7,Arg(Me)9,Trp10]MS10]	0.7
Ac-[dY][Hyp]NTFGL[Arg(Me)]W-NH2 [des(1)-Ac-[D-Tyr2,Hyp3,Thr5,Arg(Me)9,Trp10]MS10]	1.2
Ac-[dY][Hyp]NTFGL[Arg(Me)]W-NH2 (also: Gly6-Leu7 amide replaced by CH2NH) [des(1)-Ac-[D-Tyr2,Hyp3,Thr5,Gly7Ψ(CH2NH)Leu8,Arg(Me)9,Trp10]MS10]	2.9
